{
  "source": "paper PMC9324194",
  "target": "Cy3-APE1 (human) (UniProt P27695)",
  "sequence (P27695 whole entry)": "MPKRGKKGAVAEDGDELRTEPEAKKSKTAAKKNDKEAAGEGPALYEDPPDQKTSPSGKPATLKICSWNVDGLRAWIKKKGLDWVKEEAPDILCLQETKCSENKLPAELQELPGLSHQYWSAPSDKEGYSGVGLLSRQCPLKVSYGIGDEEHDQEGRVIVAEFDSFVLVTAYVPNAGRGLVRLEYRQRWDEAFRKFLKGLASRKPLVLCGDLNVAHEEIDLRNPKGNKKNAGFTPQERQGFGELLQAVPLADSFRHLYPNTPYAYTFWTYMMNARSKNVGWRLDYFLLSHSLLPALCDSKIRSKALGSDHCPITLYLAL",
  "assay": "FRET titration",
  "conditions": "N1 = tetrahydrofuran (THF), EMSA: 2 uM protein and DNA, 20 mM potassium phosphate pH 7.0, 50 mM NaCl, 5 mM MgCl2, 2 mM DTT, 0.01% Tween-20, 30 min room temperature, gel at 4 °C",
  "data": [
    {"sequence": "NCGGTCGATCGTAAGATCGACCGTGCGCTGGAGCTTGCTCCAGCGC [Cy5-P (Cy5-labelled product)]", "values": [
      {"measurement": "Kd", "result": 5, "unit": "nM"}
    ]}
  ]
}
